Experimental data reported in the supplement of paper PMC7877785.
± gives the uncertainty stated by the source.

Experiment: self-splicing fitness, log relative to wild type (ln ratio); higher = more splicing; Tetrahymena group I intron in knt gene, E. coli kanamycin selection, DiMSum; sequences stand for … in CUCUCU…GGAGGGAAAAGUUAUCAGGCAUGCACCUGGUAGCUAGUCUUUAAACCAAUAGAUUGCAUCGGUUUAAAAGGCAAGACCGUCAAAUUGCGGGAAAGGGGUCAACAGCCGUUCAGUACCAAGUCUCAGGGGAAACUUUGAGAUGGCCUUGCAAAGGGUAUGGUAAUAAGCUGACGGACAUGGUCCUAACCACGCAGCCAAGUCCUAAGUCAACAGAUCUUCUGUUGAUAUGGAUGCAGUUCACAGACUAAAUGUCGGUCGGGGAAGAUGUAUUCUUCUCAUAAGAUAUAGUCGGACCUCUCCUUAAUGGGAGCUAGCGGAUGAAGUGAUGCAACACUGGAGCCGCUGGGAACUAAUUUGUAUGCGAAAGUAUAUUGAUUAGUUUUGGAGUACUCGUGGUCG
How it was run: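 A randomised library covering all eight P1ex-region intron nucleotides was built with the intron in the knt kanamycin-resistance gene on pET-22b(+) and held in E. coli BL21(DE3). Cells were grown overnight at 37°C or 30°C on LB agar, with or without 25 μg/mL kanamycin, plus 100 μg/mL carbenicillin, 50 μM IPTG and 0.2% rhamnose, and pooled colonies were amplicon-sequenced on an Illumina HiSeq 2500. DiMSum fitness is the error-weighted combination of wild-type-normalised replicate fold changes, kanamycin versus none.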

| Sequence | self-splicing fitness (ln) (30 °C) | self-splicing fitness (ln) (37 °C) |
| --- | --- | --- |
| GACCAGCAAUAUUACGUGAU | -0.306 ± 0.05 | -0.151 ± 0.063 |
| GACCAGCAAUAUUACGUGUU | -3.73 ± 0.096 | -2.44 ± 0.11 |
| GACCAGCAAUAUUACGUUAU | -0.752 ± 0.045 | -0.147 ± 0.062 |
| GACCAGCAAUAUUACGUUGU | -1.11 ± 0.047 | -0.336 ± 0.063 |
| GACGAGCAAUAUUACGAACC | -3.09 ± 0.18 | -0.495 ± 0.13 |
| GACGAGCAAUAUUACGAACG | -0.929 ± 0.34 |  |
| GACGAGCAAUAUUACGAAUU | -3.49 ± 0.14 | -2.55 ± 0.14 |
| GACGAGCAAUAUUACGACAA |  | -1.24 ± 0.24 |
| GACGAGCAAUAUUACGACUA | -1.94 ± 0.45 | -0.17 ± 0.37 |
| GACGAGCAAUAUUACGAUCC | -0.986 ± 0.21 | -0.739 ± 0.4 |
| GACGAGCAAUAUUACGAUCG | -2.3 ± 0.23 | -2.03 ± 0.19 |
| GACGAGCAAUAUUACGCAGC | -3.4 ± 0.27 | -1.69 ± 0.28 |
| GACGAGCAAUAUUACGCAUU | -2.74 ± 0.21 | -2.44 ± 0.21 |
| GACGAGCAAUAUUACGCGCG | -3.15 ± 0.16 | -2.7 ± 0.25 |
| GACGAGCAAUAUUACGGCAA | -1.91 ± 0.2 | -0.607 ± 0.14 |
| GACGAGCAAUAUUACGGGUG | -4.16 ± 0.31 | -1.89 ± 0.16 |
| GACGAGCAAUAUUACGGUCG | -2.31 ± 0.097 | -0.868 ± 0.12 |
| GACGAGCAAUAUUACGGUUC |  | -3.11 ± 0.47 |
| GACGAGCAAUAUUACGUAAC | -3.16 ± 0.23 | -0.414 ± 0.18 |
| GACGAGCAAUAUUACGUAAG | -3.67 ± 0.41 | -0.245 ± 0.22 |
| GACGAGCAAUAUUACGUAAU | -2.61 ± 0.34 | -2.16 ± 0.17 |
| GACGAGCAAUAUUACGUCAA | -3.11 ± 0.27 |  |
| GACGAGCAAUAUUACGUGAC | -2.77 ± 0.31 | -1.48 ± 0.26 |
| GACGAGCAAUAUUACGUGGU | -2.84 ± 0.1 | -2.77 ± 0.14 |
| GACUAGCAAUAUUACGAAAU | -1.07 ± 0.16 | 0.651 ± 0.26 |

| Sequence | self-splicing fitness (ln) (30 °C) | self-splicing fitness (ln) (37 °C) |
| --- | --- | --- |
| GACUAGCAAUAUUACGACGC | 0.125 ± 0.1 | 0.0388 ± 0.14 |
| GACUAGCAAUAUUACGAGAA | -1.29 ± 0.27 | -1.53 ± 0.17 |
| GACUAGCAAUAUUACGAGAU | -2.93 ± 0.19 | -1.57 ± 0.21 |
| GACUAGCAAUAUUACGCAUC | -3.16 ± 0.17 | -2.95 ± 0.22 |
| GACUAGCAAUAUUACGCCAG | -1.31 ± 0.22 |  |
| GACUAGCAAUAUUACGCCCU | -9.77e-06 ± 0.2 | -0.315 ± 0.21 |
| GACUAGCAAUAUUACGCGUU |  | -3.83 ± 0.39 |
| GACUAGCAAUAUUACGCUGU | -3.22 ± 0.2 | -2.83 ± 0.28 |
| GACUAGCAAUAUUACGCUUG | -1.96 ± 0.1 | -1.28 ± 0.13 |
| GACUAGCAAUAUUACGGCGG | -3.72 ± 0.21 | -2.14 ± 0.13 |
| GACUAGCAAUAUUACGGCUU | -0.318 ± 0.099 | 0.0615 ± 0.14 |
| GACUAGCAAUAUUACGGGGA | -2.06 ± 0.11 | -0.995 ± 0.1 |
| GACUAGCAAUAUUACGUCAC | -3.36 ± 0.4 |  |
| GACUAGCAAUAUUACGUGGA | -1.46 ± 0.13 | -1.07 ± 0.16 |
| GACUAGCAAUAUUACGUGUG | -1.12 ± 0.055 | -0.793 ± 0.073 |
| GACUAGCAAUAUUACGUUAG | -4.25 ± 0.23 | -3.17 ± 0.23 |
| GACUAGCAAUAUUACGUUGA | -2.07 ± 0.21 | -1.59 ± 0.15 |
| GACUAGCAAUAUUACGUUUU | -2.43 ± 0.095 | -1.42 ± 0.11 |
| GAGAAGCAAUAUUACGAAGU | -2.98 ± 0.24 | -1.16 ± 0.27 |
| GAGAAGCAAUAUUACGAGAC | -2.38 ± 0.3 | -2.64 ± 0.28 |
| GAGAAGCAAUAUUACGAUAG | -3.28 ± 0.14 | -2.28 ± 0.17 |
| GAGAAGCAAUAUUACGAUGG | -2.74 ± 0.16 | -1.69 ± 0.18 |
| GAGAAGCAAUAUUACGAUGU | -1.12 ± 0.13 | -0.819 ± 0.21 |
| GAGAAGCAAUAUUACGCAGG | -2.26 ± 0.16 | -2.91 ± 0.2 |
| GAGAAGCAAUAUUACGCGGC | -3.03 ± 0.23 | -0.0876 ± 0.18 |

| Sequence | self-splicing fitness (ln) (30 °C) | self-splicing fitness (ln) (37 °C) |
| --- | --- | --- |
| GAGAAGCAAUAUUACGCGUU | -2.08 ± 0.23 | -0.752 ± 0.18 |
| GAGAAGCAAUAUUACGGCCG | -0.178 ± 0.17 | -0.256 ± 0.34 |
| GAGAAGCAAUAUUACGGCGU | -0.403 ± 0.12 | 0.0558 ± 0.16 |
| GAGAAGCAAUAUUACGUAAU | -1.88 ± 0.1 | -0.98 ± 0.11 |
| GAGAAGCAAUAUUACGUACG | -1.42 ± 0.1 | -0.572 ± 0.12 |
| GAGAAGCAAUAUUACGUCGC | -2.17 ± 0.42 |  |
| GAGAAGCAAUAUUACGUUAA | -2.68 ± 0.2 | -2.18 ± 0.24 |
| GAGAAGCAAUAUUACGUUUA | -2.13 ± 0.12 | -0.99 ± 0.12 |
| GAGCAGCAAUAUUACGACAU | -1.29 ± 0.013 | -0.608 ± 0.033 |
| GAGCAGCAAUAUUACGAUGA | -2.62 ± 0.25 | -1.03 ± 0.14 |
| GAGCAGCAAUAUUACGCGCA | -0.638 ± 0.1 | 0.461 ± 0.12 |
| GAGCAGCAAUAUUACGCGGA | -2.11 ± 0.11 | -0.965 ± 0.09 |
| GAGCAGCAAUAUUACGGAAA | -3.08 ± 0.24 | -2.84 ± 0.21 |
| GAGCAGCAAUAUUACGUCCA | -1.3 ± 0.3 | -0.418 ± 0.2 |
| GAGCAGCAAUAUUACGUUGG | -0.945 ± 0.19 | -2.43 ± 0.23 |
| GAGGAGCAAUAUUACGACUU | -2.79 ± 0.23 | -1.97 ± 0.2 |
| GAGGAGCAAUAUUACGAGUU | -3.46 ± 0.35 | -2.05 ± 0.21 |
| GAGGAGCAAUAUUACGAUUG |  | -1.93 ± 0.29 |
| GAGGAGCAAUAUUACGCAAU | -2.36 ± 0.36 |  |
| GAGGAGCAAUAUUACGCAGG | -1.91 ± 0.35 | -2.08 ± 0.36 |
| GAGGAGCAAUAUUACGCGAG |  | -2.99 ± 0.35 |
| GAGGAGCAAUAUUACGCGCA | -2.42 ± 0.2 | -0.968 ± 0.16 |
| GAGGAGCAAUAUUACGCGCU | -3.28 ± 0.16 | -2.06 ± 0.16 |
| GAGGAGCAAUAUUACGCUAC | -3.94 ± 0.37 | -2.66 ± 0.33 |
| GAGGAGCAAUAUUACGCUAG |  | -1.8 ± 0.27 |

| Sequence | self-splicing fitness (ln) (30 °C) | self-splicing fitness (ln) (37 °C) |
| --- | --- | --- |
| GAGGAGCAAUAUUACGGUAU | -2.88 ± 0.35 | -1.25 ± 0.45 |
| GAGGAGCAAUAUUACGUCAC | -2.85 ± 0.25 |  |
| GAGGAGCAAUAUUACGUCGA | -2.17 ± 0.16 | -1.61 ± 0.15 |
| GAGGAGCAAUAUUACGUCUA | -2.04 ± 0.12 | -0.687 ± 0.15 |
| GAGGAGCAAUAUUACGUCUC |  | -0.811 ± 0.49 |
| GAGGAGCAAUAUUACGUCUG | -1.73 ± 0.15 | -1.07 ± 0.18 |
| GAGGAGCAAUAUUACGUCUU | -3.65 ± 0.2 | -2.35 ± 0.23 |
| GAGGAGCAAUAUUACGUGAA | -2.45 ± 0.3 | -1.74 ± 0.3 |
| GAGGAGCAAUAUUACGUGAC | -1.97 ± 0.3 | -0.137 ± 0.26 |
| GAGGAGCAAUAUUACGUUGU |  | -1.87 ± 0.33 |
| GAGUAGCAAUAUUACGAACC | -1.17 ± 0.12 | -0.433 ± 0.14 |
| GAGUAGCAAUAUUACGAACU | -0.979 ± 0.14 | -0.323 ± 0.23 |
| GAGUAGCAAUAUUACGAAGA | -2.63 ± 0.3 |  |
| GAGUAGCAAUAUUACGAAUC | -2.47 ± 0.23 | -2.31 ± 0.24 |
| GAGUAGCAAUAUUACGACUU | -3 ± 0.15 | -2.63 ± 0.24 |
| GAGUAGCAAUAUUACGAGGU | -2.24 ± 0.35 |  |
| GAGUAGCAAUAUUACGAUGG | -2.33 ± 0.3 | -0.76 ± 0.28 |
| GAGUAGCAAUAUUACGCUUG | -0.859 ± 0.088 | -0.313 ± 0.11 |
| GAGUAGCAAUAUUACGGCUG | -1.21 ± 0.19 | -1.54 ± 0.27 |
| GAGUAGCAAUAUUACGUAGA | -4.32 ± 0.28 | -2.18 ± 0.19 |
| GAGUAGCAAUAUUACGUCAU | -2.58 ± 0.13 | -1.47 ± 0.13 |
| GAGUAGCAAUAUUACGUGAU | -3.6 ± 0.33 | -2.12 ± 0.34 |
| GAGUAGCAAUAUUACGUGUG | -2.73 ± 0.11 | -1.87 ± 0.12 |
| GAUAAGCAAUAUUACGAAGA | -3.41 ± 0.24 | -1.7 ± 0.22 |
| GAUAAGCAAUAUUACGACUA | -0.184 ± 0.086 | -0.149 ± 0.1 |
